From patent publication US20220031841A1 (ABSCI, published 2022)

Experiments:
Test in all cases: HuProt protein array, F635 z-score
[1] = target: T1, Chromobox protein homolog 1 (CBX1) (human, UniProt P83916 1-185)
T1 construct: The array carries full-length recombinant human proteins expressed in S. cerevisiae; also called Human Chromobox protein homolog 1
Excerpt: (§1) Large scale protein arrays are versatile and sensitive platforms for antibody specificity evaluation. They can be used for the evaluation of protein binding or affinity reagents that are widely employed in research and clinical applications. The microarray used in our target identification experiment provides the largest number of unique, full-length, individually purified human proteins on a single microscope slide. This allows thousands of interactions to be profiled in a high-throughput manner. The hill-length recombinant proteins are expressed in the yeast S. cerevisiae, purified, and printed on glass slides in duplicate along with a set of control proteins (GST, BSA, histones, IgG, etc.). Such microarray is not restricted to a particular type of surface coating, although the default is glass coated with ultra-thin nitrocellulose film for the non-covalent, yet irreversible, capture of active proteins to the surface. Fourteen Protein arrays were used for the antibody cross-reactivity assay of the samples. The antibodies were probed at […] on the arrays and incubated at room temperature for 1 hour. After probing, the arrays were washed according to the protocol and probed with Alexa-647-anti-human IgG […] specific secondary antibodies under conditions optimized for signal detection. The antibody-antigen binding score was calculated for each protein represented on the array and expressed as z-scores.
(§2) Antibody samples are probed on native HuProt arrays at 1 μg/ml and incubated at room temperature for 1 hour. After probing, the arrays are washed according to the standard protocols and probed with Alexa-647-anti-human IgG Fc gamma specific secondary antibodies under conditions optimized for signal detection.
(§3) Z score is the average Z score of the duplicate spots of a given protein (each protein is printed in duplicate on a HuProt™ array). The Z score of each spot on a given array is calculated according to the equation: […]

[2] = target: T2, Chromobox protein homolog 5 (CBX5) (human, UniProt P45973 1-191)
T2 construct: The array carries full-length recombinant human proteins expressed in S. cerevisiae; also called Human Chromobox protein homolog 5
T2 sequence (P45973 whole entry): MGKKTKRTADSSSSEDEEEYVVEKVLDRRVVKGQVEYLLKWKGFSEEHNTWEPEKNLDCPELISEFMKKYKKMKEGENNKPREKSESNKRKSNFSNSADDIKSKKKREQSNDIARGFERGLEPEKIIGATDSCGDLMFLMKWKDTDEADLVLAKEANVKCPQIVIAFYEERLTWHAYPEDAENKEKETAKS
Excerpt: as §1, §2, §3

[3] = target: T3, Cancer/testis antigen 1 (CTAG1A) (human, UniProt P78358 1-180)
T3 construct: The array carries full-length recombinant human proteins expressed in S. cerevisiae; also called NY-ESO-1; Cancer/Testis Antigen 1A
T3 sequence (P78358 whole entry): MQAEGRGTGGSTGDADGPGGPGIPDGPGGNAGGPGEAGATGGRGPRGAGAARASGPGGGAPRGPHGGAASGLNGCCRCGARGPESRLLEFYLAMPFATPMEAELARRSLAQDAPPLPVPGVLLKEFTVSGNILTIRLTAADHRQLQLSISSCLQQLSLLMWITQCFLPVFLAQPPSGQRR
Excerpt: as §1, §2, §3

[4] = target: T4, Alpha-taxilin (TXLNA) also known as interleukin-14A (human, UniProt P40222 1-546)
T4 construct: The array carries full-length recombinant human proteins expressed in S. cerevisiae; also called IL-14A; TXLNA/IL-14A
T4 sequence (P40222 whole entry): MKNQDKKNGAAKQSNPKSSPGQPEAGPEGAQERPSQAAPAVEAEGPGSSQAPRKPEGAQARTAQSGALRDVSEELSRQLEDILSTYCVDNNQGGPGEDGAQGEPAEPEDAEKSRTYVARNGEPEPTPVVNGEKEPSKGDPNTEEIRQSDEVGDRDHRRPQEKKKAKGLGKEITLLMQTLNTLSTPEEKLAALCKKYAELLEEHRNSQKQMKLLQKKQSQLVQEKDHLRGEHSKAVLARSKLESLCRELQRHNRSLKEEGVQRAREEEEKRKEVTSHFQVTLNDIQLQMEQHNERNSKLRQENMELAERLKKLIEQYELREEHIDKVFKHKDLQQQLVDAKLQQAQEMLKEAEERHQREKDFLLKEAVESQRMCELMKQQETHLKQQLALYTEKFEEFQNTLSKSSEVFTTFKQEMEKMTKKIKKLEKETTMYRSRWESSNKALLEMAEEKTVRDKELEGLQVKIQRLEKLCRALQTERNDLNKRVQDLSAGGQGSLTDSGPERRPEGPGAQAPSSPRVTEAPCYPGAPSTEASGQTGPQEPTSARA
Excerpt: as §1, §2, §3

[5] = target: T5, Melanoma-associated antigen 3 (MAGE-A3) (human, UniProt P43357 1-314)
T5 construct: The array carries full-length recombinant human proteins expressed in S. cerevisiae; also called Human MAGE-A3
T5 sequence (P43357 whole entry): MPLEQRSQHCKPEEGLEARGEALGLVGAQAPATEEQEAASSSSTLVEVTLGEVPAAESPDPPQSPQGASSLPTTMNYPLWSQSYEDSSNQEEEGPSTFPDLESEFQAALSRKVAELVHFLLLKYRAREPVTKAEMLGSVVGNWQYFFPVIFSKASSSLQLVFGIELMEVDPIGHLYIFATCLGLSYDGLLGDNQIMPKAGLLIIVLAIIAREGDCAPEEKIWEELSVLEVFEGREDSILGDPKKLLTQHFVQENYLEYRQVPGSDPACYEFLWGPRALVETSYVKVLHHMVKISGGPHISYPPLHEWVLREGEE
Excerpt: as §1, §2, §3

[6] = target: T6, Src homology 2 (SH2) domain containing inositol polyphosphate 5-phosphatase 1 (SHIP1) (human, UniProt Q92835 1-1189)
T6 construct: The array carries full-length recombinant human proteins expressed in S. cerevisiae, purified and printed on glass slides; also called INPP5D; INPP5D/SHIP1
T6 sequence: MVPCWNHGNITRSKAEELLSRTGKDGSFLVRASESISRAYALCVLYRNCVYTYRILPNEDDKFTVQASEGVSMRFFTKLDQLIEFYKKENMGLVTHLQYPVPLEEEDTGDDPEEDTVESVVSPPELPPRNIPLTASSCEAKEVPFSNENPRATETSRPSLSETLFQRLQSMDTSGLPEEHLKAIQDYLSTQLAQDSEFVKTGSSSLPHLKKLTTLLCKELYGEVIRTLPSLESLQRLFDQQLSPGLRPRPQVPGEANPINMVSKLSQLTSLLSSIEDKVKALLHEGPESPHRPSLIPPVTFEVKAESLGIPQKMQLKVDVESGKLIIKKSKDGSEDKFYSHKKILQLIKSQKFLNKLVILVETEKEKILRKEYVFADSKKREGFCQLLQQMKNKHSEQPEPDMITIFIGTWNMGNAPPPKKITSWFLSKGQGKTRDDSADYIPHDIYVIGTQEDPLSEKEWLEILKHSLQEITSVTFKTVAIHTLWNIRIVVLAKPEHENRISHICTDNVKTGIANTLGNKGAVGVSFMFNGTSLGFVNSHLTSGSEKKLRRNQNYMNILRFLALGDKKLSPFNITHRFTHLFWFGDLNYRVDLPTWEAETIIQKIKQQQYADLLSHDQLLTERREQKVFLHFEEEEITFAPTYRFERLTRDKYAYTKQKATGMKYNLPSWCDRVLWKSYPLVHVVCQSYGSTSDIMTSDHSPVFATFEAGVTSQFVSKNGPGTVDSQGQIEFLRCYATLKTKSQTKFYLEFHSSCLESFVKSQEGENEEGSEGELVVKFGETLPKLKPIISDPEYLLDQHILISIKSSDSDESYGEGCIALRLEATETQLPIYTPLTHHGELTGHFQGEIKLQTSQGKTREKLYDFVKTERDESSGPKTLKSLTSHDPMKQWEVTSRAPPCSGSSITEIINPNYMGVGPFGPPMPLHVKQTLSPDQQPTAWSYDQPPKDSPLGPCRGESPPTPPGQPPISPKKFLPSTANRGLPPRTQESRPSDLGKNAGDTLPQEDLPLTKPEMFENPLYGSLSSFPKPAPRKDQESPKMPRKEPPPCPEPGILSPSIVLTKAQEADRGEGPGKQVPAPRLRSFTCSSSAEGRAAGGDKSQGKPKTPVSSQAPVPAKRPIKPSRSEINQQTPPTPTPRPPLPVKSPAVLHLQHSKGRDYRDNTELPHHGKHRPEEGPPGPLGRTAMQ
Excerpt: as §1, §2, §3

[7] = target: T7, Inorganic pyrophosphatase (PPA1) (human, UniProt Q15181 2-289)
T7 construct: The array carries full-length recombinant human proteins expressed in S. cerevisiae; also called Human PPA1
T7 sequence: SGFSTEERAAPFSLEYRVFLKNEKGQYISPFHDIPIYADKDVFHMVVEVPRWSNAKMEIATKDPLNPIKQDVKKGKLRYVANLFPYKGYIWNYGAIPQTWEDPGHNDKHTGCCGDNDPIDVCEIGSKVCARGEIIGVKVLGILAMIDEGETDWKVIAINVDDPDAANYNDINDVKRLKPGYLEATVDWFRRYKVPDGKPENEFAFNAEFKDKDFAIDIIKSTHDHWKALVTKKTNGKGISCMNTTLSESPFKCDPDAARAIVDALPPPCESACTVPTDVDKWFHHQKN
Excerpt: as §1, §2, §3

Measured: binding result

T1 sequence (P83916 whole entry): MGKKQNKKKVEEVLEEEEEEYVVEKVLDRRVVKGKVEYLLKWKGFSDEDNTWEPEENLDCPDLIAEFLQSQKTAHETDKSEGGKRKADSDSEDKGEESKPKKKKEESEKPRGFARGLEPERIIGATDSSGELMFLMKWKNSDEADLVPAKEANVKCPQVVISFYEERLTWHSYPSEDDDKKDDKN

B1: TMEL1002 (antibody, V domains shown)
VH: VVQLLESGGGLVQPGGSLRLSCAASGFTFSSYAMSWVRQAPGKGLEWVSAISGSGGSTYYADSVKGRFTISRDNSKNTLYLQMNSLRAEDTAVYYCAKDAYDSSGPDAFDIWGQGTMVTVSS
VL: ASALTQPASVSGSPGQSITISCTGTSSDVGDYNYVSWYQQHPGKAPKLMIYDVSNRPSGVSNRFSGSKSGNTASLTISGLQAEDEADYYCSSYTSSSTLVFGGGTKLTVLG
no binding (tested: 1 µg/ml): all assays above

B2: TMEL1004 (antibody, V domains shown)
VH: QITLKESGPTLVKPTQTLTLTCTFSGFSLNTPGVGVGWIRQPPGKALEWLALIYWDDDKRYRPSLESRLTITKDTSKNHVVLTMTNMDPVDTATYFCAHKNLQYSEWFDPWGQGTLVIVSS
VL: EMVLTQSPATLSLSPGERATLSCRASQSVSRNSLAWYQQRPGQTPRLLIYGASSRATGIPDRFSGSGSGTDFTLIISRLEPEDFAVYFCLQYDESPYTFGQGAKLEIKR
no binding (tested: 1 µg/ml): all assays above

B3: TMEL1012 (antibody, V domains shown)
VH: PLQLQESGPGLVKPSETLSLTCTVSGDSITTTYYWGWIRQPPGKGLEWIASIYFTGSTFHNPSLKSRVTMSVDTSKNQFSLNLSSVTAADTAVYYCARRVGNWNYVWFDPWGQGTLVSVSS
VL: AYVLTQPPSVSVAPGQTARMTCGGNNIGSKSVHWYRQRPGQAPVLVVYDDTDRPSGIPERFSGSNSGNTATLTISRVEAGDEADYYCQVWDTNSDHVVFGGGTKLTVLG
no binding (tested: 1 µg/ml): all assays above
